From the DeepSol protein solubility set

Experiment: soluble on expression in E. coli; label from the status in PepcDB or PDB records

Sequence	soluble on expression in E. coli
MEIVRTKQFSLKPMDSEEAVLQMNLLGHSFYVYTDAETNGTNIVYSRKDGKYGLIETNLEHHHHHH	not soluble
MEKENTNGGSVYVTVDGHFKPVHVSMKGTGEKGFLEFMLEDVEKALKETEMPVIGMMYYNVPDMGIVPHLWEGNNDDYLQRLEKAMDGHGIKLHRYLRLSEVVYCL	not soluble
MEKFVLSLDEGTTSARAIIFDRESNIHGIGQYEFPQHYPRPGWVEHNPEEIWDAQLRAIKDAIQSARIEPNQIAAIGVTNQRETTLVWDKDGKPLYNAIVWQCRRTAEMVEEIKREYGTMIKEKTGLVPDAYFSASKLKWLLDNVPGLREKAEKGEVMFGTVDTFLIYRLTGEHVTDYSNASRTMLFNIKKLDWDDELLELFDIPESVLPEVRESSEVYGYTKKELLGAEIPVSGDAGDQQAALFGQAAFEAGMVKATYGTGSFILVNTDKMVLYSDNLLTTIAWGLNGRVSYALEGSIFVTGAAVQWLRDGIKIIKHASETEELATKLESNEGVYFVPAFVGLGAPYWDQFARGIIIGITRGTGREHLARATLEAIAYLTRDVVDEMEKLVQIKELRVDGGATANDFLMQFQADILNRKVIRPVVKETTALGAAYLAGLAVDYWADTREIAELWKAERIFEPKMDEKTRERLYKGWKEAVKRAMGWAKVVDSAKSN	soluble
MEKKIEKVRQFYTALAQGDFETVGALLSDDLVWHQPGQGALSGTYNGKQNVFAHLERMAQLSNGTFAIDQVDYVTDNGNLVAAAIAFAVSANGHSIEMKGVDLFNFENGFIKKVWLFSERIEEESRFWTALAQGC	not soluble
MEKKITLIPPPEFVQYVGGHFEEVGKEFMQYFIEIGNLKSNETVLDVGCGIGRMAVPLMNYLSDDGTYYGFDLFNKGITWCKNNISTRRNNFHFEHVDIYNQFYNPDGKEDASQYKFPYEDESFDFIFLTSVFTHLLPKELEHYVREIARVLKKDGRCFITFFLINPESSYYLNAGLSPLGFYHQIDNCYVLNKDIPNFAVAYPEEDIRTLLNKYGLEMQTPPHYGSWCGRTEHTSYQDIILAQKLEHHHHHH	not soluble
MEKPVFYLDRVGEENTEAVIGAAAKRAAELGISHIVVASTSGKTALKMAEAVKGSNIKVIGVSHQYGQKEKGEWEVGEEYRKKLEELGAVITTQSHMFSGIERSITKKFGGYSRIEVISDTLRSLFGKGFKVAIEVAIMAADSGHIPVSDDTEIIAIGGTRWGADVALVLRPAHSNDFFSLQVREIIAMPRAKEDLEHHHHHH	soluble
MEKREFPVSDRIFPEVSIPYGDKSTKAMQITCACCGAVAYFPHQTGVNRKPPIAATQHFQNKGWVVGGNPRKDFCPIHAAPAKRKGQKAMVDTVATIADKPREMSREDRRIINDKLDEVYAKDAYKSPWTDSAVAKDLGVPRDWVAQVRDQFFGPAGSNPLYDEFLKETKLVEGAFLACEEATARAEKAAADQRRAHGDLCKAMDSYRVLARKVEREISR	not soluble
MEKYIHSVEDYHRLISYLENNLNYEDSVVNHVIYVIAKTGMRYGEIIGLTNNDTSLDEHYLHTYKRYNTSTWKWTNAKNESSKRYIPIDDKIVAALSNMIKERERINSLLRIKNKEEFLFFHYGLEHGIPSVATVNKALKKILKKLDIEPIITTKGLRHTYGSYLLHNNIDMGVVARILGHKDIQMLIQVYGHTLTEKIDKEFKEVEQIMNRILEHHHHHH	not soluble
MEKYQALLANNVENTAKEALHQLAYTGREYNNIQDQIETISDLLGHSQSLYDYLREPSKANLTILENMWSSVARNQKLYKQIRFLDTSGTEKVRIKYDFKTSIAGPSLILRDKSAREYFKYAQSLDNEQISAWGIELERDKGELVYPLSPSLRILMPISVNDVRQGYLVLNVDIEYLSSLLNYSPVRDFHIELVKHKGFYIASPDESRLYGDIIPERSQFNFSNMYPDIWPRVVSEQAGYSYSGEHLIAFSSIKFVSNEPLHLIIDLSNEQLSKRATRDINDLIQESLEHHHHHH	soluble
MELDGKAPSHRNLNVQTWSTAEGAKVLFVEARELPMFDLRLIFAAGSSQDGNAPGVALLTNAMLNEGVAGKDVGAIAQGFEGLGADFGNGAYKDMAVASLRSLSAVDKREPALKLFAEVVGKPTFPADSLARIKNQMLAGFEYQKQNPGKLASLELMKRLYGTHPYAHASDGDAKSIPPITLAQLKAFHAKAYAAGNVVIALVGDLSRSDAEAIAAQVSAALPKGPALAKIEQPAEPKASIGHIEFPSSQTSLMLAQLGIDRDDPDYAAVSLGNQILGGGGFGTRLMSEVREKRGLTYGVYSGFTPMQARGPFMINLQTRAEMSEGTLKLVQDVFAEYLKNGPTQKELDDAKRELAGSFPLSTASNADIVGQLGAMGFYNLPLSYLEDFMRQSQELTVEQVKAAMNKHLNVDKMVIVSAGPTVAQKPLEHHHHHH	soluble
MELKARAVGVEIIPKGKIIYYSVPNGDEYERGDLVLVLGDFGLEVGKVLIPPREVVIDEVGYELKAVIRKLTDEDLEQYRKNVEDALKAFQICKQKIKEHGLPMKLLYAKYTFDRTRLIFFFSAEGRVDFRELVRDLAKIFKTRIELRQVGVRDEMKFFGGLGLCGLPTCCSTFLREFTSVTLKHAKKQQMMINPAKISGPCRRLLCCLTYEYDFYEKELEGIPDEGSTITYEGKRYKVVNVNVFLRTVTLFSEQEGEMIKLPFDYFRKGE	soluble
MELTMAKELIFIDWDDTLVNRENAEDFESVTDENNTIYQMSPMFIGAVEALKQLQEKYHVVIVSSRGDLNRLRQLQLQSYDLESSIMPLENFTFEDNDNRLLFTRYGETNFPDKASFILYIQKMSGNKIKVFIDDDHTEIEAAQSKGIPTIHATHNKYLQNTEQFFSGLIHQVDNMELSHIFNKVAAEIRNNSRSISWGRQIAGFFSVHLPIAQSLENLASKLQRKSANEVSEEFDQYLKKIAYDPNKKGDIAVSLTKAKTAIDKHISAPIEIKEDQPFLNRMI	not soluble
MEMSLEEFKTMFKTVMKKEFEDELHRITEPGKSKMAIERYIQGINLLDKKCILDNDENHNVLFKFAPIDQDFAHSSTNLSTPSPLEEESARENNHEAQELDITERIARMNLIGGSEFQMQYSSFLTAVSTKPSTDASLKKEARRLAEIWWAKNLRFFPQTMYVLQKLDQKNPDGFNYTDFEEEVQKVIPRSWIQNHHSFTLLSLLNEESLYVKFNLIMPSDSENMNRVKVNQVIKFLGFHEIGDCEFSMIYQYVSSKSASESTYSIHKFMCEDFPGWETQYNNEKKSMDRIFEIIIQEQKLFWTEYDYHTYKRHAYKIAVPMVFSLNIVDKAVGVRSDAR	not soluble
MENFAVIDLGSNSCRMTITQIQEDGSYAVTHRLKEMVRLSENENATDTPTLQAEAIDRTIAALKSFAAVYKDLPNLTIKAVATAATRKASNQKKFLKRVKNDVGLDIEVIPGTTEAYYDYLGVVNTLPTTNCVMVDTGGGSCELVLIVNGQAKDLISLPIGAVSLSEKFGLNDQVTASQLFKTMTFVDKIFNSVWWLRNGLNLPLVCLGGSNRTLAKINRRKCNILNFEDIHGYRLRDNAIYDTFNTVISQDAAGRAAIPGLAKDRADIIVGGMIPAISLMRFLDSDRMIFSQNGLREGILFEHLTALAEQSAKVSELEHHHHHH	not soluble
MENKEVIIIGAGAAGVGMGVALKDFGINNFAILERKQVGNSFIKWPEQTRFITPSFTSNGFGMPDLNAIAIDTSPSYTLGEERLSGKDYAKYLQLVSEEYKLPIKTNCKVQSIKKEKTGYLLETTKGFIYAEYVIFAMGEFSFPNKSSIKGAYKNSLHYGEINSWIEIKGDKQTIIGGNESAIDAAIELAKLGKRVTIYTDTLGLNIRDADPSKRLAPRTRQRFFDLRVNQKKLDSIKIYTTTKVKKIEKKSTSYILITENGKSLPVENIPILCTGFKNGTKSITASLFKYKENGEVLLNDFDESTIAKNIFLTGPNVRKGNTIFCYIYKFRQRFAVIANEIARRKHITIDEKKLSYYKNQSFYLDGCSGCEVRCSCLEHHHHHH	soluble
MENKHNPTSHTSHTWSELPELNPCVPLGTLLPDKSCPKTHPLADLIPPRQQQQFMHGNSWKLAPYGRSMIMRYAMQVRGQLAPTVLGINRTWKGDTCWNQIPKTSDCFHMVYKDHKLYFLNKTGSFKIFDFCGDIPQQTFEWSVKVERSQFGPPPPSNPWKVLATKLVVTVTGKVLKVEEMGGARPRTWSFRVFESMLLDQGITVLANDTGGFIRNTIYFSASHGNNTHDIYIFNLETQKTEPLHTLDSYSSSVQFYGAQWFVPSFKH	soluble
MENKSPMKGSEAENAKDQLKKKTAEEFAQMAIINRAFSAESTEDPPPLAQKRSESTLKPLNDELKSVPLVRAFNSAENQLDPKNQNAAKK	not soluble
MENQPKLNSSKEVIAFLAERFPHCFSAEGEARPLKIGIFQDLVERVGGEMNLSKTQLRSALRLYTSSWRYLYGVKPGATRVDLDGNPCGELEEQHVEHARKQLEEAKARVQAQRAEQQAKKREAAAAAGEKEDAPRRERKPRPVARRKEGAERKPRADKPTTKAPRAPREEKHTPVSDISVLTVGQSLKVKAGNNAMDATVLEITKDGVRVQLNSGMSLIVRAEHLVF	not soluble
MENRKLAVLIDADNAQSSLIAELLAEVAKYGTAIVKRAYGDWTTTQLKGWKEVLHQYAISPIQQFAYTKGKNSTDSALIIDAMDLLYTGNFDGFCLVSSDSDFTRLATRLREGGLTVIGLGEQSKTPRPFIAACDKFVFTEILRPAPPAKPKPETAATADKPKARSSRTRAKAAPHKEKHPLQDMFTSAIEAVARDSGWAELSAVGSYLAKNDPSFDPRNWGHGRLSQMVKKLDFLTVQESRNGSKLHSEIRLRHDGEAAVAEPAAPVETPQPSPSEEAAPPPRKKRSPRKKISPAGLEHHHHHH	soluble
MEPAAGFLSPRPFQRAAAAPAPPAGPGPPPSALRGPELEMLAGLPTSDPGRLITDPRSGRTYLKGRLLGKGGFARCYEATDTETGSAYAVKVIPQSRVAKPHQREKILNEIELHRDLQHRHIVRFSHHFEDADNIYIFLELCSRKSLAHIWKARHTLLEPEVRYYLRQILSGLKYLHQRGILHRDLKLGNFFITENMELKVGDFGLAARLEPPEQRKKTICGTPNYVAPEVLLRQGHGPEADVWSLGCVMYTLLCGSPPFETADLKETYRCIKQVHYTLPASLSLPARQLLAAILRASPRDRPSIDQILRHDFFTKGYTPDRLPISSCVTVPDLTPPNPARSLFAKVTKSLFGRKKKSKNHAQERDEVSGLVSGLMRTSVGHQDARPEAPAASGPAPVSLVETAPEDSSPRGTLASSGDGFEEGLTVATVVESALCALRNCIAFMPPAEQNPAPLAQPEPLVWVSKWVDYSNKFGFGYQLSSRRVAVLFNNGTHMALSANRKTVHYNPTSTKHFSFSVGAVPRALQPQLGILRYFASYMEQHLMKGGDLPSVEEVEVPAPPLLLQWVKTDQALLMLFSDGTVQVNFYGDHTKLILSGWEPLLVTFVARNRSACTYLASHLRQLGCSPDLRQRLRYALRLLRDRSPA	soluble
MEPDIEPWDRFRDWLHCICVVTFDLELGQALEVIYPGDAILSNTEKINICYLAFPDSNSSNARDTNFHFRIRRAISDVRDCQKSFVDKSPTSLPFDTHYLYGFVHFRQCKDPTIHRGYYQKSIVLMSVLPLFSLFYSVTARIAEHFFESGEAAIEAACHHIDTWQQPHAGRTIELPLLGTLISCRLPAACDLPYEFRLDGHVELSDDDSQRLVRPDFTTSIVQHVHHLPLLWELVLLGEPLLIVAPTPSITSALVQSIVGLLSPLRIVNDFRPYFTIHDSEFREYSSKSRSPPRVILGVTNPFFIKALDHWPHILKVAEQGAEIGGDDMKKPKKTWSSSRTLDTPAGLYTQYKPFLSKDKSLAKKLLRSGNSLEVQHNILQRHFLELTHSFMIPMERYLSSLMPLKKEMSPFKGIPSTRPFSMDDFLATLETNGGPSLTCGTKGDWQGLYRRFITCSNFGGWLSMRSRDVNAQLKTHYVEALCSADFCSQTLATKHNVEIVDLVLRIRERIIECPPDTEIRRNLVRQVVKILSNVDDDLKQLLMSNCSLREILA	not soluble
